Assay results as given in article doi:10.1101/695502 (bioRxiv, 2019).
Where two headings read alike, the source gives them in different places. One block for each molecule: values may come before it.

Legend:
[1] = target: mm PCDH15 EC9-MAD12 (mammalian-expressed, glycosylated) (Mus musculus); assay: SEC-MALS
[2] = target: mm PCDH15 EC1-MAD12 CD1-1 (Mus musculus); assay: SEC-MALS
[3] = target: mm PCDH15 EC1-MAD12 CD1-1 (Mus musculus); assay: SEC-MALS; remark: listed apart in the source
[4] = target: hs PCDH15 EC1-3 G16D/N369D/Q370N (Homo sapiens)
[5] = target: bacterially produced mm PCDH15 EC9-MAD12 (Mus musculus); assay: SEC-SAXS
[6] = target: the molecule itself; assay: AUC

Molecule: bacterially produced mm PCDH15 EC9-MAD12 (domain or fragment)
stoichiometry N [5]: 2

B1: hs PCDH15 EC2-3 WT (domain or fragment, Homo sapiens)
chain: NSPTFKHESYYATVNELTPVGTTIFTGFSGDNGATDIDDGPNGQIEYVIQYNPDDPTSNDTFEIPLMLTGNIVLRKRLNYEDKTRYFVIIQANDRAQNLNERRTTTTTLTVDVLDGDDLGPMFLPCVLVPNTRDCRPLTYQAAIPELRTPEELNPIIVTPPIQAIDQDRNIQPPSDRPGILYSILVGTPEDYPRFFHMHPRTAELSLLEPVNRDFHQKFDLVIKAEQDNGHPLPAFAGLHIEILDENN
Kd [6]: < 1000 nM | stoichiometry N [6]: 2

Continued, values first:

stoichiometry N [1]: 2
Molecule: mm PCDH15 EC9-MAD12 (mammalian-expressed, glycosylated) (domain or fragment)

stoichiometry N [2]: 2 | stoichiometry N [3]: 2
Molecule: mm PCDH15 EC1-MAD12 CD1-1 (domain or fragment)

stoichiometry N [4]: 2
Molecule: hs PCDH15 EC1-3 G16D/N369D/Q370N (domain or fragment)
